Assay results taken from paper PMC6428836, “A complex of novel protease inhibitor, ovostatin homolog, with its cognate proteases in immature mice uterine luminal fluid” (Scientific Reports, 2019).

Molecular target: the molecule itself
Test: SEC + other: non-reducing and reducing SDS-PAGE; about 700 kDa on Sephacryl S-400, about 360 kDa in non-reducing SDS-PAGE, traces of the 162 kDa subunit under reduction; tetramer of two disulfide-linked dimers

B1: mouse ovostatin homolog (natural protein, mouse (endogenous in immature mouse ULF), UniProt Q3UU35 20-1456, looked up)
chain: AEPRYILWVSSVVQRFSSEKACLHLLNLNESVSLSVTLEYDGSSTTIFDQPVDEGNFYACADFKVSQMSSEQLAFVALLVQGNTLKISERRSVAIAAEENATFVQTDTPVHKPGDTVHFRVVTLNIWLKPVDDLYPLITVQDPQSNVIFQWINVTTFRNITQLSFQLTPEPILGDYTIVIKTQSGTTVMDHFTVNRDVLPKFEVELTAPETITIADSQFQMVTCAKYTYGQPVQGKAQIKVCRELFSPAHCESNENEICEQFTVQLKDGCASHIINTKVFQLDRSGLFMTLNVNEVVTESGTGVQMSKTHSVFITSVLGTVSFENMDPFYRRGITYFGTLKFSGPNNTPLVDKLLQLELDGKPVGNYTTDENGEARFSINTSEIFGAQISLKAVYVRPRSCHRSSWLSPEYLDAYFSASRFYSQTSSFTKIILEPKQLPCDQEKMFSVLYSLNPEAYKEASDVTFFYLVMVRGGISRSGQKQVRVQAWNGNFSFPISINADLAPSADLFVYTLHPSGEIVADNVRLQIEKCFKNKVSINFSRDKDLPGSNTSVHLQAAPDSFCALRAVDKSALLLNHGQEMTPESVYFTLPYIHQYGYFYNGLNLDDQQAEPCIPQKDLFYNGLYYTPTGNIWDGDLSNLLSNMGLKIFTNLHYRKPEVCSSQENQPLLRTFDHPNERIMMYGGGAPPSSAFHDSVDSISHAKVAIKETVRTNFPRTWIWNLVSVDSSGTANVSFLVPDTITQWEASAFCVNGNAGFGISPKVSLQISQPFFVEVTSPFSVVRSEQSDMVVTVFNYLTTCVEISVQLEASENYEASINTQRNTDSEVLQAGEQKTYVWTIIPKTLGKVNVTVVATSKQSRACPNDASKEQDVHWKDTVVKTMLVEAEGIEKEATQSFLICPKGTKASKQTLLELPSNVVEGSVRSFVTIVGDILGVAMQNLESLLQMPYGCGEQNIAQLASDVYILDYLKATDQLTEELKSKAQRLLSNGYQNHLSFKNYDGSYDVFCQSNQEGSTWLSALSFKTVEKMKEYIFIEETVPKQTLIWLVKKQKSNGCFRRDEKHVDTAQEGREGDQEDIALTAYVVGVFLEVGLNASFPALRNGLYCLEEAFSNGVTNGYTQAILAYVFALAGKEQQAKSLLSILDKSATKTNNMIYWERDEKPETDNSPSFIPSALSGETEKTCYVLLAVLSQDTQDLDYASKIVQWLAQRMNSHGGFSAMQDTTVCLLALTQYMKLTGSNPQNTITLSSEESEEVFYVNRNKRLLVQHSKVSKGHQQYTVDVEGDGCSFIQATLRYNVPLPKEASGFSLSVKTGKSNSSDEFQTKFELTVTLTYTGARESSVTVLVDVKMLSGFTPVVSSTEELKFNSQVTKTDIKNGHVLFYLENVPKEATSLTFSIEQTNHVANIQPAPVTVYSYEKGEYAFDSYNINSISDSQ
notes: ovostatin homolog, mouse, NP_001001179.2; predicted subunit 162 kDa; 360 kDa in non-reducing SDS-PAGE, about 700 kDa by gel filtration; In ULF most subunits are seen as an 88 kDa fragment under reducing conditions, only traces as the 162 kDa subunit; also called mOH; 360 kDa protein; source: endogenous, uterine luminal fluid (ULF) of DES-treated immature ICR mice; also partly purified from it …
With B1 as the protein, how does the “stoichiometry N” value read?
Its value is 4.
